The results in this text go back to PMC11211670 (mLife, 2024).

Data set [1] deals with the molecule itself. Briefly: cryo-electron micrographs of filaments; purified ecCTPS^helix12+ in the product state (CTP); filaments seen in cryo samples.
Data set [2] deals with the molecule itself. Kind of data set: cryo-EM structure; 7 uM ecCTPS incubated with 0.58 mM DON, 1 mM CTP, 0.5 mM NADH and 10 mM MgCl2 for 30 min at 0 °C; single particle analysis of filaments, D2 symmetry, mask on the central tetramer.

B1: ecCTPS with an inserted hCTPS helix 12 (ecCTPS^helix12+) (enzyme, Escherichia coli | human)
chain: MTTNYIFVTGGVVSSLGKGIAAASLAAILEARGLNVTIMKLDPYINVDPGTMSPIQHGEVFVTEDGAETDLDLGHYERFIRTKMSRRNNFTTGRIYSDVLRKERRGDYLGATVQVIPHITNAIKERVLEGGEGHDVVLVEIGGTVGDIESLPFLEAIRQMAVEIGREHTLFMHLTLVPYMAASGEVKTKPTQHSVKELLSIGIQPDILICRSDRAVPANERAKIALFCNVPEKAVISLKDVDSIYKIPGLLKSQGLDDYICKRFSLNCPEANLSEWEQVIFEEANPVSEVTIGMVGKYIELPDAYKSVIEALKHGGLKNRVSVNIKLIDSQDVETRGVEEEPVRYHEAWQILKGLDAILVPGGFGYRGVEGMITTARFARENNIPYLGICLGMQVALIDYARHVANMENANSTEFVPDCKYPVVALITEWRDENGNVEVRSEKSDLGGTMRLGAQQCQLVDDSLVRQLYNAPTIVERHRHRYEVNNMLLKQIEDAGLRVAGRSGDDQLVEIIEVPNHPWFVACQFHPEFTSTPRDGHPLFAGFVKAASEFQKRQAK
notes: E. coli CTP synthase, the stretch before the insertion; Helix 12 of human CTPS1, inserted; H346 and W349 of the variant correspond to H355 and W358 of hCTPS1; E. coli CTP synthase, the stretch after the insertion; It ends with HHHHHH, which is written here as the tag; also called engineered ecCTPS
Consider B1, for which the binding result in data set [1] was “binds”.

B2: Escherichia coli CTP synthase (cytidine triphosphate synthase) (enzyme, UniProt P0A7E5 1-545, looked up)
chain: MTTNYIFVTGGVVSSLGKGIAAASLAAILEARGLNVTIMKLDPYINVDPGTMSPIQHGEVFVTEDGAETDLDLGHYERFIRTKMSRRNNFTTGRIYSDVLRKERRGDYLGATVQVIPHITNAIKERVLEGGEGHDVVLVEIGGTVGDIESLPFLEAIRQMAVEIGREHTLFMHLTLVPYMAASGEVKTKPTQHSVKELLSIGIQPDILICRSDRAVPANERAKIALFCNVPEKAVISLKDVDSIYKIPGLLKSQGLDDYICKRFSLNCPEANLSEWEQVIFEEANPVSEVTIGMVGKYIELPDAYKSVIEALKHGGLKNRVSVNIKLIDSQDVETRGVEILKGLDAILVPGGFGYRGVEGMITTARFARENNIPYLGICLGMQVALIDYARHVANMENANSTEFVPDCKYPVVALITEWRDENGNVEVRSEKSDLGGTMRLGAQQCQLVDDSLVRQLYNAPTIVERHRHRYEVNNMLLKQIEDAGLRVAGRSGDDQLVEIIEVPNHPWFVACQFHPEFTSTPRDGHPLFAGFVKAASEFQKRQAK
notes: CTP synthase of Escherichia coli, full-length gene in pET28a; In the cryo-EM sample it forms tetramers that stack into filaments; also called ecCTPS; wild-type ecCTPS; source: E. coli Transetta (DE3), purified (Ni-Agarose, Superose 6 Increase)
Broadly, the stoichiometry N is the number of molecules, sites or subunits per partner or assembly. Turning to B2, in data set [2], the “stoichiometry N” value amounted to 4.
